Earlier results as cited in publication PMC8193598.
Where “and” joins values, the source holds several entries; their conditions need not be identical. Equal values may be shown once. Read-outs that look alike come from different tables or passages of the source.

How the values were obtained:
[1] = molecular target: spike protein (SARS-CoV-2) (UniProt P0DTC2)
[2] = molecular target: spike protein (SARS-CoV-2) (UniProt P0DTC2); remark: listed apart in the source
[3] = molecular target: SARS-CoV-2 S1 CendR peptide CendR peptide (SARS-CoV-2) (UniProt P0DTC2)

Sequence of ASGR1 (P07306 whole entry): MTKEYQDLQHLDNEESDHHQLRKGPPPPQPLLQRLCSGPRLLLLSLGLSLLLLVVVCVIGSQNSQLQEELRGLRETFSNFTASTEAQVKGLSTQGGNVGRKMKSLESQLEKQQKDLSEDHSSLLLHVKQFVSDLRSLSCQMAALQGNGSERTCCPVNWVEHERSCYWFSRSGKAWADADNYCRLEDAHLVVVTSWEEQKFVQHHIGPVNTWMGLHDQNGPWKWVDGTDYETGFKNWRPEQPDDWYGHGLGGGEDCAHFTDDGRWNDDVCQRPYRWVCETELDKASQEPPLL
Sequence of KREMEN1 (Q96MU8 20-392): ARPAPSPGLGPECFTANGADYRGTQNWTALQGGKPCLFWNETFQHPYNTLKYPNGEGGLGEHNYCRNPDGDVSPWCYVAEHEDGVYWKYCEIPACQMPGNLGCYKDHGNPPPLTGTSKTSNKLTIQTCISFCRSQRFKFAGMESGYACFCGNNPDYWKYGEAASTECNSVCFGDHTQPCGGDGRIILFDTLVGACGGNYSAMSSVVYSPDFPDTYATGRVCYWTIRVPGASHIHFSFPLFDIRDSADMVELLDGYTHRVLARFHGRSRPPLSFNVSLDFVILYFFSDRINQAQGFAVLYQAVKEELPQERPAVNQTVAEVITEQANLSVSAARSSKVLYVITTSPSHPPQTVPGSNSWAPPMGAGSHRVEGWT

For ASGR1 (from UniProt P07306), the Kd [1] is listed as 94.8 nM.
In the case of KREMEN1 (from UniProt Q96MU8), the Kd [2] is listed as 19.3 nM.
For “neuropilin-1 coagulation factor domain (from UniProt O14786)”, the Kd [3] is listed as 20.3 µM and 13 µM.
